Results as given in US20230257467A1 (DRAGONFLY THERAPEUTICS, published 2023).

Assays:
[1] = molecular target: T1, recombinant human EGFR-His (human, UniProt P00533 25-645); assay: SPR, single point mutant scFv constructs
T1 construct: also called epidermal growth factor receptor; ErbB-1; not shown: His tag (EGFR-His)

[2] = molecular target: T2, recombinant rhesus EGFR-His (rhesus macaque, UniProt P55245 25-645, limits assumed); assay: SPR, single point mutant scFv constructs
T2 construct: also called Rhesus macaque EGFR; not shown: His tag (EGFR-His)

[3] = molecular target: T1, recombinant human EGFR-His; assay: SPR, Biacore 8K, 37 C, TriNKET captured on anti-hFc IgG chip, EGFR-His injected, N=4
Procedure: (§1) Kinetics and affinities of EGFR binding constructs for recombinant human and rhesus EGFR were measured by SPR using a Biacore 8K instrument. Samples were captured on the anti-hFc IgG chip and a range of concentrations of human or rhesus recombinant EGFR-His was injected over captured test articles. Experiments were performed at physiological temperature of 37° C. Data were analyzed using Biacore 8K Insight Evaluation software (GE Healthcare).

[4] = molecular target: T3, EGFR expressed on H2172 human cancer cells (human, UniProt P00533 25-1210); assay: flow cytometry on EGFR-positive H2172 cells, 4 C for 0.5 h, fluorophore-conjugated anti-human IgG secondary antibody
T3 construct: whole, on cells; also called EGFR-positive H2172 cancer cells; EGFR+ cells
Procedure: This example was designed to assess the binding affinity of the EGFR-targeting TriNKETs to EGFR expressed on cell surface. The H2172 human cancer cell line, derived from non-small cell lung carcinoma, was used. […] Cells were analyzed by flow cytometry and fold MFI over secondary-only controls reported.

[5] = molecular target: T1, recombinant human EGFR-His; assay: SPR, Biacore 8K, 37 C, TriNKET captured on anti-hFc IgG chip, EGFR-His injected, N=4; column head prints KD (nM) but the cells carry E-09
Procedure: as §1

[6] = molecular target: T1, recombinant human EGFR-His; assay: SPR, combination mutant scFv constructs
[7] = molecular target: T2, recombinant rhesus EGFR-His; assay: SPR, combination mutant scFv constructs

Row | Molecule | koff [3] [s⁻¹] | kon [3] [M⁻¹ s⁻¹] | EC50 (read off the curve) [4] [nM] | Kd [5] [nM] | further results
1 | PANI-L-D92R (scFv) |  |  |  |  | Kd [1]: 3.27 nM; koff [1]: 0.000839 s⁻¹; kon [1]: 256000 M⁻¹ s⁻¹; Kd [2]: 5.09 nM; koff [2]: 0.00096 s⁻¹; kon [2]: 189000 M⁻¹ s⁻¹
2 | EGFR-TriNKET-2 (bispecific antibody, human IgG1, kappa, F3' format with three polypeptides: EGFR-scFv-2 (VL-VH)-Fc, A49MI-VH-CH1-Fc and A49MI-VL-CL; also called EGFR2) DIQMTQSPSSLSASVGDRVTITCQASQDISNYLNWYQQKPGKAPKLLIYDASNLETGVPSRFSGSGSGTDFTFTISSLQPEDIATYYCQHFDHLPLAFGCGTKVEIKGGGGSGGGGSGGGGSGGGGSQVQLQESGPGLVKPSETLSLTCTVSGGSVSSGDYYWTWIRQSPGKCLEWIGHIYYSGNTNYNPRLKSRLTISIDTSKTQFSLKLSSVTAADTAIYYCVRDRVTGAFDIWGQGTMVTVSSGSDKTHTCPPCPAPELLGGPSVFLFPPKPKDTLMISRTPEVTCVVVDVSHEDPEVKFNWYVDGVEVHNAKTKPREEQYNSTYRVVSVLTVLHQDWLNGKEYKCKVSNKALPAPIEKTISKAKGQPREPRVYTLPPCRDELTKNQVSLTCLVKGFYPSDIAVEWESNGQPENNYKTTPPVLVSDGSFTLYSKLTVDKSRWQQGNVFSCSVMHEALHNHYTQKSLSLSPG heavy: EVQLVESGGGLVKPGGSLRLSCAASGFTFSSYSMNWVRQAPGKGLEWVSSISSSSSYIYYADSVKGRFTISRDNAKNSLYLQMNSLRAEDTAVYYCARGAPIGAAAGWFDPWGQGTLVTVSSASTKGPSVFPLAPSSKSTSGGTAALGCLVKDYFPEPVTVSWNSGALTSGVHTFPAVLQSSGLYSLSSVVTVPSSSLGTQTYICNVNHKPSNTKVDKKVEPKSCDKTHTCPPCPAPELLGGPSVFLFPPKPKDTLMISRTPEVTCVVVDVSHEDPEVKFNWYVDGVEVHNAKTKPREEQYNSTYRVVSVLTVLHQDWLNGKEYKCKVSNKALPAPIEKTISKAKGQPREPQVCTLPPSRDELTENQVSLTCLVKGFYPSDIAVEWESNGQPENNYKTTPPVLDSDGSFFLYSWLTVDKSRWQQGNVFSCSVMHEALHNHYTQKSLSLSPG light: DIQMTQSPSSVSASVGDRVTITCRASQGISSWLAWYQQKPGKAPKLLIYAASSLQSGVPSRFSGSGSGTDFTLTISSLQPEDFATYYCQQGVSFPRTFGGGTKVEIKRTVAAPSVFIFPPSDEQLKSGTASVVCLLNNFYPREAKVQWKVDNALQSGNSQESVTEQDSKDSTYSLSSTLTLSKADYEKHKVYACEVTHQGLSSPVTKSFNRGEC | 0.000988 | 500000 | ~0.5 | 1.98 | 
3 | EGFR-TriNKET-1 (bispecific antibody, also called EGFR1) scFv-Fc: DIQMTQSPSSLSASVGDRVTITCQASQDISNYLNWYQQKPGKAPKLLIYDASNLETGVPSRFSGSGSGTDFTFTISSLQPEDIATYFCQHFDHLPLAFGCGTKVEIKGGGGSGGGGSGGGGSGGGGSQVQLQESGPGLVKPSETLSLTCTVSGGSVSSGDYYWTWIRQSPGKCLEWIGHIYYSGNTNYNPSLKSRLTISIDTSKTQFSLKLSSVTAADTAIYYCVRDRVTGAFDIWGQGTMVTVSSGSDKTHTCPPCPAPELLGGPSVFLFPPKPKDTLMISRTPEVTCVVVDVSHEDPEVKFNWYVDGVEVHNAKTKPREEQYNSTYRVVSVLTVLHQDWLNGKEYKCKVSNKALPAPIEKTISKAKGQPREPRVYTLPPCRDELTKNQVSLTCLVKGFYPSDIAVEWESNGQPENNYKTTPPVLVSDGSFTLYSKLTVDKSRWQQGNVFSCSVMHEALHNHYTQKSLSLSPG heavy: EVQLVESGGGLVKPGGSLRLSCAASGFTFSSYSMNWVRQAPGKGLEWVSSISSSSSYIYYADSVKGRFTISRDNAKNSLYLQMNSLRAEDTAVYYCARGAPIGAAAGWFDPWGQGTLVTVSSASTKGPSVFPLAPSSKSTSGGTAALGCLVKDYFPEPVTVSWNSGALTSGVHTFPAVLQSSGLYSLSSVVTVPSSSLGTQTYICNVNHKPSNTKVDKKVEPKSCDKTHTCPPCPAPELLGGPSVFLFPPKPKDTLMISRTPEVTCVVVDVSHEDPEVKFNWYVDGVEVHNAKTKPREEQYNSTYRVVSVLTVLHQDWLNGKEYKCKVSNKALPAPIEKTISKAKGQPREPQVCTLPPSRDELTENQVSLTCLVKGFYPSDIAVEWESNGQPENNYKTTPPVLDSDGSFFLYSWLTVDKSRWQQGNVFSCSVMHEALHNHYTQKSLSLSPG light: DIQMTQSPSSVSASVGDRVTITCRASQGISSWLAWYQQKPGKAPKLLIYAASSLQSGVPSRFSGSGSGTDFTLTISSLQPEDFATYYCQQGVSFPRTFGGGTKVEIKRTVAAPSVFIFPPSDEQLKSGTASVVCLLNNFYPREAKVQWKVDNALQSGNSQESVTEQDSKDSTYSLSSTLTLSKADYEKHKVYACEVTHQGLSSPVTKSFNRGEC | 0.000967 | 592000 | ~0.3 |  | 
4 | EGFR-TriNKET-3 (bispecific antibody, human IgG1, kappa, F3' format with three polypeptides: EGFR-scFv-3 (VL-VH)-Fc, A49MI-VH-CH1-Fc and A49MI-VL-CL; also called EGFR3) DIQMTQSPSSLSASVGDRVTITCQASQDISNYLNWYQQKPGKAPKLLIYDASNLETGVPSRFSGSGSGTDFTFTISSLQPEDIATYYCQHFRHLPLAFGCGTKVEIKGGGGSGGGGSGGGGSGGGGSQVQLQESGPGLVKPSETLSLTCTVSGGSVSSGDYYWTWIRQSPGKCLEWIGHIYYSGNTNYNPRLKSRLTISIDTSKTQFSLKLSSVTAADTAIYYCVRDRVTGAFDIWGQGTMVTVSSGSDKTHTCPPCPAPELLGGPSVFLFPPKPKDTLMISRTPEVTCVVVDVSHEDPEVKFNWYVDGVEVHNAKTKPREEQYNSTYRVVSVLTVLHQDWLNGKEYKCKVSNKALPAPIEKTISKAKGQPREPRVYTLPPCRDELTKNQVSLTCLVKGFYPSDIAVEWESNGQPENNYKTTPPVLVSDGSFTLYSKLTVDKSRWQQGNVFSCSVMHEALHNHYTQKSLSLSPG heavy: EVQLVESGGGLVKPGGSLRLSCAASGFTFSSYSMNWVRQAPGKGLEWVSSISSSSSYIYYADSVKGRFTISRDNAKNSLYLQMNSLRAEDTAVYYCARGAPIGAAAGWFDPWGQGTLVTVSSASTKGPSVFPLAPSSKSTSGGTAALGCLVKDYFPEPVTVSWNSGALTSGVHTFPAVLQSSGLYSLSSVVTVPSSSLGTQTYICNVNHKPSNTKVDKKVEPKSCDKTHTCPPCPAPELLGGPSVFLFPPKPKDTLMISRTPEVTCVVVDVSHEDPEVKFNWYVDGVEVHNAKTKPREEQYNSTYRVVSVLTVLHQDWLNGKEYKCKVSNKALPAPIEKTISKAKGQPREPQVCTLPPSRDELTENQVSLTCLVKGFYPSDIAVEWESNGQPENNYKTTPPVLDSDGSFFLYSWLTVDKSRWQQGNVFSCSVMHEALHNHYTQKSLSLSPG light: DIQMTQSPSSVSASVGDRVTITCRASQGISSWLAWYQQKPGKAPKLLIYAASSLQSGVPSRFSGSGSGTDFTLTISSLQPEDFATYYCQQGVSFPRTFGGGTKVEIKRTVAAPSVFIFPPSDEQLKSGTASVVCLLNNFYPREAKVQWKVDNALQSGNSQESVTEQDSKDSTYSLSSTLTLSKADYEKHKVYACEVTHQGLSSPVTKSFNRGEC | 0.00093 | 295000 | ~0.9 | 3.16 | 
5 | EGFR-TriNKET-4 (bispecific antibody, human IgG1, kappa, F3' format with three polypeptides: EGFR-scFv-4 (VL-VH)-Fc, A49MI-VH-CH1-Fc and A49MI-VL-CL; also called EGFR4) DIQMTQSPSSLSASVGDRVTITCQASQDISNYLNWYQQKPGKAPKLLIYDASNLETGVPSRFSGSGSGTDFTFTISSLQPEDIATYYCQHFRHLPLAFGCGTKVEIKGGGGSGGGGSGGGGSGGGGSQVQLQESGPGLVKPSETLSLTCTVSGGSVSSGDYYWTWIRQSPGKCLEWIGHIYYSGNTNYNPSLKSRLTISIDTSKTQFSLKLSSVTAADTAIYYCVRDRVTGAFDIWGQGTMVTVSSGSDKTHTCPPCPAPELLGGPSVFLFPPKPKDTLMISRTPEVTCVVVDVSHEDPEVKFNWYVDGVEVHNAKTKPREEQYNSTYRVVSVLTVLHQDWLNGKEYKCKVSNKALPAPIEKTISKAKGQPREPRVYTLPPCRDELTKNQVSLTCLVKGFYPSDIAVEWESNGQPENNYKTTPPVLVSDGSFTLYSKLTVDKSRWQQGNVFSCSVMHEALHNHYTQKSLSLSPG heavy: EVQLVESGGGLVKPGGSLRLSCAASGFTFSSYSMNWVRQAPGKGLEWVSSISSSSSYIYYADSVKGRFTISRDNAKNSLYLQMNSLRAEDTAVYYCARGAPIGAAAGWFDPWGQGTLVTVSSASTKGPSVFPLAPSSKSTSGGTAALGCLVKDYFPEPVTVSWNSGALTSGVHTFPAVLQSSGLYSLSSVVTVPSSSLGTQTYICNVNHKPSNTKVDKKVEPKSCDKTHTCPPCPAPELLGGPSVFLFPPKPKDTLMISRTPEVTCVVVDVSHEDPEVKFNWYVDGVEVHNAKTKPREEQYNSTYRVVSVLTVLHQDWLNGKEYKCKVSNKALPAPIEKTISKAKGQPREPQVCTLPPSRDELTENQVSLTCLVKGFYPSDIAVEWESNGQPENNYKTTPPVLDSDGSFFLYSWLTVDKSRWQQGNVFSCSVMHEALHNHYTQKSLSLSPG light: DIQMTQSPSSVSASVGDRVTITCRASQGISSWLAWYQQKPGKAPKLLIYAASSLQSGVPSRFSGSGSGTDFTLTISSLQPEDFATYYCQQGVSFPRTFGGGTKVEIKRTVAAPSVFIFPPSDEQLKSGTASVVCLLNNFYPREAKVQWKVDNALQSGNSQESVTEQDSKDSTYSLSSTLTLSKADYEKHKVYACEVTHQGLSSPVTKSFNRGEC | 0.000745 | 316000 |  | 2.36 | 
6 | PANI-H_S62R-L_F87Y-L_D92R (scFv, V domains shown, also called EGFR-scFv-3) VH: QVQLQESGPGLVKPSETLSLTCTVSGGSVSSGDYYWTWIRQSPGKCLEWIGHIYYSGNTNYNPRLKSRLTISIDTSKTQFSLKLSSVTAADTAIYYCVRDRVTGAFDIWGQGTMVTVSS VL: DIQMTQSPSSLSASVGDRVTITCQASQDISNYLNWYQQKPGKAPKLLIYDASNLETGVPSRFSGSGSGTDFTFTISSLQPEDIATYYCQHFRHLPLAFGCGTKVEIK |  |  |  |  | Kd [6]: 3.38 nM; koff [6]: 0.00099 s⁻¹; kon [6]: 293000 M⁻¹ s⁻¹; Kd [7]: 5.36 nM; koff [7]: 0.00112 s⁻¹; kon [7]: 209000 M⁻¹ s⁻¹
